From patent US20080119430

Target: Rho (active Rho-GTP, endogenous in HUVECs)

Row | Protein | fold increase in Rho activity (active Rho-GTP) in HUVECs after BNO69 knockdown with BNO69R, compared to empty vector | fold increase in Rho activity in HUVECs expressing the R82A mutant, compared to empty vector
1 | BNO69 (endogenous protein in HUVECs, knocked down by adenoviral antisense BNO69R) (protein) MPEDRNSGGCPAGALASTPFIPKTTYRRIKRCFSFRKGIFGQKLEDTVRYEKRYGNRLAPMLVEQCVDFIRQRGLKEEGLFRLPGQANLVKELQDAFDCGEKPSFDSNTDVHTVASLLKLYLRELPEPVIPYAKYEDFLSCAKLLSKEEEAGVKELAKQVKSLPVVNYNLLKYICRFLDEVQSYSGVNKMSVQNLATVFGPNILRPKVEDPLTIMEGTVVVQQLMSVMISKHDCLFPKDAELQSKPQDGVSNNNEIQKKATMGLLQNKENNNTKDSPSRQCSWDKSESPQRSSMNNGSPTALSGSKTNSPKNSVHKLDVSRSPPLMVKKNPAFNKGSGIVTNGSFSSSNAEGLEKTQTTPNGSLQARRSSSLKVSGTKMGTHSVQNGTVRMGILNSDTLGNPTNVRNMSWLPNGYVTLRDNKQKEQAGELGQHNRLSTYDNVHQQFSMMNLDDKQSIDSATWSTSSCEISLPENSNSCRSSTTTCPEQDFFGGNFEDPVLDGPPQDDLSHPRDYESKSDHRSVGGRSSRATSSSDNSETFVGNSSSNHSALHSLVSSLKQEMTKQKIEYESRIKSLEQRNLTLETEMMSLHDELDQERKKFTMIEIKMRNAERAKEDAEKRNDMLQKEMEQFFSTFGELTVEPRRTERGNTIWIQ | 3.1±0.5 fold increase in Rho activity with BNO69R | 
2 | BNO69 mutant (R82A) (protein) MPEDRNSGGCPAGALASTPFIPKTTYRRIKRCFSFRKGIFGQKLEDTVRYEKRYGNRLAPMLVEQCVDFIRQRGLKEEGLFALPGQANLVKELQDAFDCGEKPSFDSNTDVHTVASLLKLYLRELPEPVIPYAKYEDFLSCAKLLSKEEEAGVKELAKQVKSLPVVNYNLLKYICRFLDEVQSYSGVNKMSVQNLATVFGPNILRPKVEDPLTIMEGTVVVQQLMSVMISKHDCLFPKDAELQSKPQDGVSNNNEIQKKATMGLLQNKENNNTKDSPSRQCSWDKSESPQRSSMNNGSPTALSGSKTNSPKNSVHKLDVSRSPPLMVKKNPAFNKGSGIVTNGSFSSSNAEGLEKTQTTPNGSLQARRSSSLKVSGTKMGTHSVQNGTVRMGILNSDTLGNPTNVRNMSWLPNGYVTLRDNKQKEQAGELGQHNRLSTYDNVHQQFSMMNLDDKQSIDSATWSTSSCEISLPENSNSCRSSTTTCPEQDFFGGNFEDPVLDGPPQDDLSHPRDYESKSDHRSVGGRSSRATSSSDNSETFVGNSSSNHSALHSLVSSLKQEMTKQKIEYESRIKSLEQRNLTLETEMMSLHDELDQERKKFTMIEIKMRNAERAKEDAEKRNDMLQKEMEQFFSTFGELTVEPRRTERGNTIWIQ |  | 2.6±0.7 fold increase (n=4 experiments) in Rho activity
